What was measured:
[1] = test system: alpha2-TALEN-L (Platinum TALEN, TRAC exon 1); assay: cell_activity; settings: half-site not delineated
[2] = test system: alpha2-TALEN-R (Platinum TALEN, TRAC exon 1); assay: cell_activity; settings: half-site not delineated
[3] = 1G4 knock-in efficiency in beta-null Jurkat with alpha2-TALEN pair and conventional PITCh vector
[4] = 1G4 knock-in efficiency in beta-null Jurkat with alpha2-TALEN pair and modified PITCh vector

| Sequence | activity [1, 3] | activity [2, 3] | activity [1, 4] | activity [2, 4] |
| --- | --- | --- | --- | --- |
| GTCTGCCTATTCACCGATTGAAGATTTTGATTCAATGTGTCACAAAGTAAGGATTC (double strand) | 3.1% | 3.1% | – | – |
| GTCTGCCTATTCACCGATTGAAGATTTTGATTCAATGTGTCACAAAGTAAGGA (double strand) | – | – | 3.5% | 3.5% |
